Reference: publication PMC9722916

Biological target: T1, rat TRPV2, C-terminally fused to GFP and a His8-tag (rat), Q9WUD2
T1 chain: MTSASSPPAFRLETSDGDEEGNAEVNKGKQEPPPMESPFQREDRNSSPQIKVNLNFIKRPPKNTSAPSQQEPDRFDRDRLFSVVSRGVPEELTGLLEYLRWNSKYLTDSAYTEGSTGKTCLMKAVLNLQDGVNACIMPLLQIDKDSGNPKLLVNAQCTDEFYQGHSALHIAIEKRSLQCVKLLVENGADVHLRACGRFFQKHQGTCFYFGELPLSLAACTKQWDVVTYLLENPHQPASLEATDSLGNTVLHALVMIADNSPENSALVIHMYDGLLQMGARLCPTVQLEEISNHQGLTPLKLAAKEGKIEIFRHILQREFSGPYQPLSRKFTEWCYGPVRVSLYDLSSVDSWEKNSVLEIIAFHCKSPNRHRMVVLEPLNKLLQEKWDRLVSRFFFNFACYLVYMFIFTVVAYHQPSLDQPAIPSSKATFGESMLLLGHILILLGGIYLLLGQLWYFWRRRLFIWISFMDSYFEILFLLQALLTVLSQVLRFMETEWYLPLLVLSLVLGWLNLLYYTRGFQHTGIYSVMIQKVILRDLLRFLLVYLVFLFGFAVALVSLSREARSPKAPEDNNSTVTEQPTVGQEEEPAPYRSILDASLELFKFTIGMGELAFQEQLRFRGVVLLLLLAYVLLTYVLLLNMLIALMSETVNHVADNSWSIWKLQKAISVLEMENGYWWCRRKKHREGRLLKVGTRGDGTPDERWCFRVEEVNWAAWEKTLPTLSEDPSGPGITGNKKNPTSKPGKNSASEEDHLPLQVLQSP
Test: cryo-EM structure; purified rat TRPV2 in GDN (20 mM Tris 8.0, 150 mM NaCl, 0.4 mg/ml GDN), incubated with C16 (50 uM) and probenecid (2 mM), alone or in combination, at room temperature for 15 min; C4 symmetry (C16 and probenecid structures), C1 symmetry (C16+probenecid structures)
Conditions: remark: other sources report otherwise

stoichiometry N: 4
B1: rat TRPV2, C-terminally fused to GFP and a His8-tag, Q9WUD2 1-761 (natural protein)
chain: MTSASSPPAFRLETSDGDEEGNAEVNKGKQEPPPMESPFQREDRNSSPQIKVNLNFIKRPPKNTSAPSQQEPDRFDRDRLFSVVSRGVPEELTGLLEYLRWNSKYLTDSAYTEGSTGKTCLMKAVLNLQDGVNACIMPLLQIDKDSGNPKLLVNAQCTDEFYQGHSALHIAIEKRSLQCVKLLVENGADVHLRACGRFFQKHQGTCFYFGELPLSLAACTKQWDVVTYLLENPHQPASLEATDSLGNTVLHALVMIADNSPENSALVIHMYDGLLQMGARLCPTVQLEEISNHQGLTPLKLAAKEGKIEIFRHILQREFSGPYQPLSRKFTEWCYGPVRVSLYDLSSVDSWEKNSVLEIIAFHCKSPNRHRMVVLEPLNKLLQEKWDRLVSRFFFNFACYLVYMFIFTVVAYHQPSLDQPAIPSSKATFGESMLLLGHILILLGGIYLLLGQLWYFWRRRLFIWISFMDSYFEILFLLQALLTVLSQVLRFMETEWYLPLLVLSLVLGWLNLLYYTRGFQHTGIYSVMIQKVILRDLLRFLLVYLVFLFGFAVALVSLSREARSPKAPEDNNSTVTEQPTVGQEEEPAPYRSILDASLELFKFTIGMGELAFQEQLRFRGVVLLLLLAYVLLTYVLLLNMLIALMSETVNHVADNSWSIWKLQKAISVLEMENGYWWCRRKKHREGRLLKVGTRGDGTPDERWCFRVEEVNWAAWEKTLPTLSEDPSGPGITGNKKNPTSKPGKNSASEEDHLPLQVLQSP
